In patent publication US20110311550A1 (Scripps Research, published 2011):

Experiments:
[1] = molecular target: T1, HCV E1E2 complex, isolate H77 (genotype 1a) (hepatitis C virus genotype 1a, isolate …, UniProt P27958 192-383; P27958 384-746); test: competition ELISA on lectin-captured H77 E1E2; competitor: Fab T1
T1 construct: also called E1E2 (H77); Folded E1E2

[2] = molecular target: T1, HCV E1E2 complex, isolate H77 (genotype …); test: competition ELISA on lectin-captured H77 E1E2; competitor: Fab Q1
[3] = molecular target: T1, HCV E1E2 complex, isolate H77 (genotype …); test: competition ELISA on lectin-captured H77 E1E2; competitor: Fab P5
[4] = molecular target: T1, HCV E1E2 complex, isolate H77 (genotype …); test: competition ELISA on lectin-captured H77 E1E2; competitor: Fab R1
[5] = molecular target: T1, HCV E1E2 complex, isolate H77 (genotype …); test: competition ELISA on lectin-captured H77 E1E2; competitor: Fab P6
[6] = molecular target: T1, HCV E1E2 complex, isolate H77 (genotype …); test: competition ELISA on lectin-captured H77 E1E2; competitor: Fab S1
[7] = molecular target: T1, HCV E1E2 complex, isolate H77 (genotype …); test: competition ELISA on lectin-captured H77 E1E2; competitor: Fab Q2
[8] = molecular target: T1, HCV E1E2 complex, isolate H77 (genotype …); test: competition ELISA on lectin-captured H77 E1E2; competitor: Fab V1
[9] = molecular target: T1, HCV E1E2 complex, isolate H77 (genotype …); test: competition ELISA on lectin-captured H77 E1E2; competitor: Fab U1
[10] = molecular target: T2, HCV E1E2 complex, isolate H77 (genotype 1a) (hepatitis C virus genotype 1a, isolate …, UniProt P27958 192-383; P27958 384-746); test: apparent affinity: half-maximal binding, ELISA on lectin-captured E1E2
[11] = molecular target: HCV E1E2 complex, isolate HCV-1 (genotype 1a), vaccinia-expressed (hepatitis C virus genotype 1a, isolate …, UniProt P26664 192-383; P26664 384-746); test: as above
[12] = molecular target: T2, HCV E1E2 complex, isolate H77 (genotype …); test: ELISA, mAb with E1E2 (H77), then CD81-LEL plate
[13] = molecular target: T2, HCV E1E2 complex, isolate H77 (genotype …); test: Fab screen after panning on antibody-masked E1E2 (H77)

B1: MAb AR1B (antibody, V domains shown)
VH: LESGGGLVQPGGSLRLSCEASGYYFSSFAMSWVRQTPGKGLEWVSSIAGGTLGRTSYRDSVKGRFTISRDNSKNTVFLHMNNLRPEDTAVYYCAKDPLLFAGGPNWFDHWGQGTLVTVSS
VL: not shown
notes: also called IgG1 of Fab D1
residual binding [1]: 102% | residual binding [2]: 97% | residual binding [3]: 95% | residual binding [4]: 101% | residual binding [5]: 95% | residual binding [6]: 101% | residual binding [7]: 96% | residual binding [8]: 102% | residual binding [9]: 103%

B2: MAb AR1A (IgG1 from Fab B2) (antibody, V domains shown)
VH: LEQSGAEVKKPGSSVKVSCRASGSPYSSYTITWVRQAPGQGLEWMGGIILMTGKANYAQKFQGRVTITADRATATAYMEMSSLTSDDTAIYYCARDPYVYAGDDVRSLSRWGQGTPVIVSS
VL: not shown
notes: also called ARIA
EC50 [10]: 3.8 nM | EC50 [11]: 2.6 nM | IC50 [12]: 5.7 nM

B3: MAb AR2A (antibody, V domains shown)
VH: LEQSGAEMKKPGASLKVSCKTSGYTFDDYGVTWVRQAPGQGLEWMGWISAYSGNTFYARKFQGRVTMTTDPSTRTAYMELRSLRSDDTAVYFCARDRGLAINGVVFPYFGLDVWGQGTTVTVSS
VL: ELTQSPVSLPVTPGEPASISCRSSQSLLHSNGNHYLDWYLQKPGQSPQLLMYLGSNRASGVPDRFSGSGSGTDFTLKISRVEAEDVGVYYCMQGLQTPWTFGQGTKVEIKR
notes: also called IgG1 of Fab G
residual binding [1]: 93% | residual binding [2]: 75% | residual binding [3]: 73% | residual binding [4]: 75% | residual binding [5]: 76% | residual binding [6]: 79% | residual binding [7]: 72% | residual binding [8]: 79% | residual binding [9]: 132%

B4: Fab L7 (Fab, V domains shown)
VH: VQLLEQSGAEVKKPGSSVKVTCKVPGDTFRSYVITWVRQAPGQGLEWLGGILPFFGTTNLAQKFQGRVTLTADESTTTAYMELSSLRAEDTAVYYCAKAGDLAFGGVIAGGVPHLSHFDPWGQGTLVTVSS
VL: ELTQSPGTLSLSPGERATLSCRASQSVPSSYLGWYQQKPGQAPRLLIYGASSRATGIPERFSGSGSGTDFTLTISRLEPEDFAVYYCQQYGSSLSFGQGTKVDLKR
binding result [13]: binds

B5: Fab B7 (Fab, V domains shown)
VH: VQLLEQSGAEVKKPGSSVKVSCRASGSPYSSYTITWVRQAPGQGLEWMGGIILMTGKANYAQKFQGRVTITADRATATAYMEMSSLTSDDTAIYYCARDPYVYAGDDVWSLSRWGQGTPVIVSS
VL: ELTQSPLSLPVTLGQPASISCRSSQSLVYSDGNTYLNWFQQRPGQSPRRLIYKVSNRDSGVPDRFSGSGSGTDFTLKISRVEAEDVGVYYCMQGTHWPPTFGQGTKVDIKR
binding result [13]: binds

B6: MAb AR3C (IgG1 from Fab H3) (antibody, V domains shown)
VH: LEQSGAEVKKPGSSVKVSCETSGGTLDNYALNWVRQAPGQGLEWIGGVVPLFGTTRNAQKFQGRVTISDDKSTGTGHMELRSLRSEDTAVYYCVRSVTPRYCGGGFCYGEFDYWGQGTLVTVSS
VL: ELTQSPATLSVSPGERATLSCRASQSVSSNLAWYQQKPGQAPRLLIYGASTRATGIPARFSGSGSGTEFTLTVSRLEPEDSAVYFCQQYYRSPLTFGGGTKVEIKR
EC50 [10]: 2.3 nM | EC50 [11]: 1.4 nM | IC50 [12]: 2 nM
